{"source": "the supplement of paper PMC7125110", "parents": {"B1": {"name": "glmS ribozyme (parent)", "chain": "AUAAAAGCGCCAGAACUACAGAAAUGUAGUUGACGAGGAGGAGGUUUAUCGAAUUUUCGGCGGAUGCCUCCAAA"}}, "settings_in_all_cases": "with glucosamine-6-phosphate", "key": {"[1]": {"variants_of": "B1", "test": "kcat; higher = faster cleavage; RNA array", "procedure,_shortened": "(§1)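 A hybridised Cy3 probe tracked barcoded ribozyme variants, transcribed in situ by E. coli RNA polymerase on sequenced MiSeq chips, at 37 °C. The variants received 40 μM to 10 mM glucosamine-6-phosphate in HEPES/KCl/Mg(OAc)2 buffer. kobs came from decay fits and kcat and KM from weighted Michaelis–Menten fits.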"}, "[2]": {"variants_of": "B1", "test": "KM; higher = weaker cofactor use; RNA array", "procedure,_shortened": "as §1"}, "[3]": {"variants_of": "B1", "test": "self-cleavage kobs at 640 uM GlcN6P; higher = faster cleavage; RNA array", "procedure,_shortened": "as §1"}, "[4]": {"variants_of": "B1", "test": "self-cleavage kobs at 2500 uM GlcN6P; higher = faster cleavage; RNA array", "procedure,_shortened": "as §1"}, "[5]": {"variants_of": "B1", "test": "self-cleavage kobs at 10000 uM GlcN6P; higher = faster cleavage; RNA array", "procedure,_shortened": "as §1"}, "[6]": {"variants_of": "B1", "test": "self-cleavage kobs at 160 uM GlcN6P; higher = faster cleavage; RNA array", "procedure,_shortened": "as §1"}, "[7]": {"variants_of": "B1", "test": "self-cleavage kobs at 40 uM GlcN6P; higher = faster cleavage; RNA array", "procedure,_shortened": "as §1"}}, "note": "± gives the standard error. For some of these results: This sample holds only a part of the variants without activity.", "data": [{"variant": "AUAAAAGCGCCAGAACUACAGAAAUGUAGUUGACGAUGAGGAGGUUUAUCGAAUUUUCGGCGGAUGCGUCCAAA", "note": "[G37U C68G]", "values": [{"measurement": "kcat", "setting": "[1]", "value": "2.11e-05 ± 5e-06", "unit": "s⁻¹"}]}, {"variant": "AUAAAAGCGCCAGAACUACAGAAAUGUAGUUGACGAGGAGGAGGUUUAUCGACUUUUCGGCGGAUGCCACCAAA", "note": "[A53C U69A]", "values": [{"measurement": "kcat", "setting": "[1]", "value": "0.000135 ± 1.3e-05", "unit": "s⁻¹"}, {"measurement": "KM", "setting": "[2]", "value": "0.683 ± 0.2", "unit": "mM"}, {"measurement": "self-cleavage kobs at 640 uM GlcN6P", "setting": "[3]", "value": "6.52e-05 ± 1.2e-05", "unit": "s⁻¹"}, {"measurement": "self-cleavage kobs at 2500 uM GlcN6P", "setting": "[4]", "value": "0.000124 ± 2.1e-05", "unit": "s⁻¹"}, {"measurement": "self-cleavage kobs at 10000 uM GlcN6P", "setting": "[5]", "value": "0.000118 ± 1.8e-05", "unit": "s⁻¹"}]}, {"variant": "AUAAAAGCGCCAGAACUACAGAAAUGUAGCUGACGAGGGGGAGGUUUAUCGAAUUUUCGGCGGAUGCCUCCAAA", "note": "[U30C A39G]", "values": [{"measurement": "kcat", "setting": "[1]", "value": "0.00121 ± 0.00015", "unit": "s⁻¹"}, {"measurement": "KM", "setting": "[2]", "value": "3.93 ± 0.73", "unit": "mM"}, {"measurement": "self-cleavage kobs at 160 uM GlcN6P", "setting": "[6]", "value": "5.74e-05 ± 1.6e-05", "unit": "s⁻¹"}, {"measurement": "self-cleavage kobs at 640 uM GlcN6P", "setting": "[3]", "value": "0.00016 ± 2.7e-05", "unit": "s⁻¹"}, {"measurement": "self-cleavage kobs at 2500 uM GlcN6P", "setting": "[4]", "value": "0.00046 ± 6.8e-05", "unit": "s⁻¹"}, {"measurement": "self-cleavage kobs at 10000 uM GlcN6P", "setting": "[5]", "value": "0.000888 ± 0.00014", "unit": "s⁻¹"}]}, {"variant": "AUAAAAGCGCCAGAACUACAGAAAUGUAGUUGACGAGGAGGAGGUUUAUCGAACUGUCGGCGGAUGCCUCCAAA", "note": "[U54C U56G]", "values": [{"measurement": "kcat", "setting": "[1]", "value": "0.0154 ± 0.0051", "unit": "s⁻¹"}, {"measurement": "KM", "setting": "[2]", "value": "2.68 ± 1.1", "unit": "mM"}, {"measurement": "self-cleavage kobs at 40 uM GlcN6P", "setting": "[7]", "value": "0.000282 ± 4.7e-05", "unit": "s⁻¹"}, {"measurement": "self-cleavage kobs at 160 uM GlcN6P", "setting": "[6]", "value": "0.000649 ± 0.00019", "unit": "s⁻¹"}, {"measurement": "self-cleavage kobs at 640 uM GlcN6P", "setting": "[3]", "value": "0.0032 ± 0.0011", "unit": "s⁻¹"}, {"measurement": "self-cleavage kobs at 10000 uM GlcN6P", "setting": "[5]", "value": "0.0133 ± 0.0027", "unit": "s⁻¹"}]}, {"variant": "AUAAAAGCGCCAGAACUACAGAAAUGUAGUUGACGAGGAGGAGGUUUAUCGAAUUUUCGGCAGAUGCCUGCAAA", "note": "[G62A C70G]", "values": [{"measurement": "kcat", "setting": "[1]", "value": "4.83e-05 ± 2.2e-05", "unit": "s⁻¹"}, {"measurement": "self-cleavage kobs at 40 uM GlcN6P", "setting": "[7]", "value": "< 1e-05", "unit": "s⁻¹"}, {"measurement": "self-cleavage kobs at 640 uM GlcN6P", "setting": "[3]", "value": "4.71e-05 ± 1.5e-05", "unit": "s⁻¹"}, {"measurement": "self-cleavage kobs at 10000 uM GlcN6P", "setting": "[5]", "value": "< 1e-05", "unit": "s⁻¹"}]}, {"variant": "AUAAAAGCGCCAGGACUACAGAAAUGUAGUUGGCGAUGAGGAGGUUUAUCGAAUUUUCGGCGGAUGCCUCCAAA", "note": "[A14G A33G G37U]", "values": [{"measurement": "kcat", "setting": "[1]", "value": "< 1e-05", "unit": "s⁻¹"}, {"measurement": "self-cleavage kobs at 40 uM GlcN6P", "setting": "[7]", "value": "< 1e-05", "unit": "s⁻¹"}, {"measurement": "self-cleavage kobs at 160 uM GlcN6P", "setting": "[6]", "value": "< 1e-05", "unit": "s⁻¹"}]}, {"variant": "AUAAAAGCGCCAGAACUACAGAAAUGUAGUUGACGAGGAGGAGCUUUAUCGAAUUUUCGGCGGAUGGCUCCAAA", "note": "[G44C C67G]", "values": [{"measurement": "kcat", "setting": "[1]", "value": "0.0216 ± 0.0034", "unit": "s⁻¹"}, {"measurement": "KM", "setting": "[2]", "value": "3.93 ± 0.79", "unit": "mM"}, {"measurement": "self-cleavage kobs at 40 uM GlcN6P", "setting": "[7]", "value": "0.000211 ± 4.8e-05", "unit": "s⁻¹"}, {"measurement": "self-cleavage kobs at 160 uM GlcN6P", "setting": "[6]", "value": "0.000995 ± 0.00033", "unit": "s⁻¹"}, {"measurement": "self-cleavage kobs at 640 uM GlcN6P", "setting": "[3]", "value": "0.00316 ± 0.00083", "unit": "s⁻¹"}, {"measurement": "self-cleavage kobs at 2500 uM GlcN6P", "setting": "[4]", "value": "0.00752 ± 0.0019", "unit": "s⁻¹"}, {"measurement": "self-cleavage kobs at 10000 uM GlcN6P", "setting": "[5]", "value": "0.0168 ± 0.0047", "unit": "s⁻¹"}]}, {"variant": "AUAAAAGCGCCAGAACUACAGAAAUGUAGUUGACGAGGAGGAGGUUUAUCGAAUUUACGGCGGAUGCCUCGAAA", "note": "[U57A C71G]", "values": [{"measurement": "kcat", "setting": "[1]", "value": "5.3e-05 ± 1.6e-05", "unit": "s⁻¹"}]}, {"variant": "AUAAAAGCGCCAGAACUACAGAAAUGUAGUAGGCGAGGAGGAGGUUUAUCGAAUUUUCGGCGGAUGCCUACAAA", "note": "[U31A A33G C70A]", "values": [{"measurement": "kcat", "setting": "[1]", "value": "1.81e-05 ± 5.1e-06", "unit": "s⁻¹"}]}, {"variant": "AUAAAAGCGCCAGAGCUACAGAAAUGUAGUUGACGAAGAGGAGGUUUAUCGAAUUUUCGGCGGAUGCCUCCAAA", "note": "[A15G G37A]", "values": [{"measurement": "kcat", "setting": "[1]", "value": "0.00317 ± 0.0014", "unit": "s⁻¹"}, {"measurement": "self-cleavage kobs at 40 uM GlcN6P", "setting": "[7]", "value": "8.19e-05 ± 9.7e-06", "unit": "s⁻¹"}, {"measurement": "self-cleavage kobs at 160 uM GlcN6P", "setting": "[6]", "value": "0.000154 ± 2.7e-05", "unit": "s⁻¹"}, {"measurement": "self-cleavage kobs at 640 uM GlcN6P", "setting": "[3]", "value": "0.000515 ± 7.3e-05", "unit": "s⁻¹"}, {"measurement": "self-cleavage kobs at 2500 uM GlcN6P", "setting": "[4]", "value": "0.00123 ± 0.00023", "unit": "s⁻¹"}, {"measurement": "self-cleavage kobs at 10000 uM GlcN6P", "setting": "[5]", "value": "0.00292 ± 0.00037", "unit": "s⁻¹"}]}]}
